For orientation: Kd means the constant that tells how readily two partners part at equilibrium. The koff is the first-order rate constant of dissociation. Broadly, the kon is the rate constant with which the complex forms.

The target of one test is T1, Rat c-Met-Flis-Fc ECD (rat).
T1 construct: also called Rat cMet-ECD-Fc-Flis; rat c-Met ECD
Description: SPR (Biacore), antibody captured. As for the experimental part:
(§1) A Biacore® 2000 instrument is used to measure the binding kinetics of c-Met antibodies to human, cynomolgus monkey, and rat c-Met ECDs. Measurements are performed at 25° C. Samples are dissolved in HBS-EP buffer (150 mM sodium chloride, 3 mM EDTA, 0.005% (w/v) surfactant P-20, and 10 mM N-2-hydroxyethylpiperazine-N′-2-ethanesulfonic acid (HEPES) at pH 7.4; #BR-1001-88).
(§2) Binding is evaluated using multiple cycles. Each cycle is performed at a flow rate of 50 μL/min., and consists of the following steps: injection of about 10 μL of a c-Met antibody at 10 μg/mL aiming at a capture of 40-100 RUs, injection of 250 μL of human, cynomolgus, or rat c-Met-Flis-Fc ECD (starting at 100 nM and using two-fold serial dilutions for each cycle) followed by 20 min. for dissociation, and regeneration using about 30 μL of 10 mM glycine hydrochloride, pH 1.5. Association and dissociation rates for each cycle are evaluated using a “1:1 (Langmuir) binding” model in the BIAevaluation software, version 4.1.
(In SPR one partner is held on a chip, and binding of the other changes the refractive index at the surface.)

Another test has as its target T2, mouse c-Met ECD (mouse, UniProt P16056 25-931).
T2 construct: extracellular domain
Nature of the test: ELISA, coated ECD (data not shown). For orientation: In an ELISA, binding on a coated surface is turned into a signal by an enzyme label.

Test [1] concerns the target T3, Human c-Met-Flis-Fc ECD (human).
T3 construct: also called human c-Met extracellular domain (ECD)-Fc-Flis fusion; Human cMet-ECD-Fc-Flis
Nature of the test: ELISA, coated ECD-Fc, antibody 0.000 ng/mL. On the procedure:
(§3) Wells of 96-well EIA/RIA high binding plates (Costar, #2592) are coated with 100 μL of 1 μg/mL human c-Met extracellular domain (ECD)-Fc-Flis fusion (SEQ ID NO:72), RON-ECD-Fc (R&D Systems, #1947-MS), or PlexinA2-ECD-Fc (Abnova, Taipei, Taiwan #H00005362-P01) in coating buffer (BioFX Labs, # COAT-1000-01) overnight at 4° C. […] After the plates are washed, 100 μL/well of substrate solution (BioFx, #TMBW-1000-01) are added and the plates are incubated for 10 min. at room temperature. 100 μL/well of stop solution (BioFx, # LSTP-1000-01) are added to stop the reaction. The colorimetric signals are developed and read at 450 nm using a SpectraMax 190 plate reader (Molecular Devices, Sunnyvale, Calif.). c-Met antibody binding to c-Met, RON and PlexinA2 ECDs is proportional to color signal production.

The target in test [2] is T3, Human c-Met-Flis-Fc ECD. Nature of the test: ELISA, coated ECD-Fc, antibody 0.002 ng/mL. As for the experimental part:
as §3

Test [3] addresses T3, Human c-Met-Flis-Fc ECD. Description: ELISA, coated ECD-Fc, antibody 0.010 ng/mL. As for the experimental part:
as §3

The target of test [4] is T3, Human c-Met-Flis-Fc ECD. Description: ELISA, coated ECD-Fc, antibody 0.060 ng/mL. As for the experimental part:
as §3

The target of test [5] is T3, Human c-Met-Flis-Fc ECD. Description: ELISA, coated ECD-Fc, antibody 0.357 ng/mL. On the procedure: as §3
Test [6] concerns the target T3, Human c-Met-Flis-Fc ECD. Description: ELISA, coated ECD-Fc, antibody 2.143 ng/mL. As for the experimental part:
as §3

Test [7] deals with T3, Human c-Met-Flis-Fc ECD. Nature of the test: ELISA, coated ECD-Fc, antibody 12.860 ng/mL. On the procedure:
as §3

The target of test [8] is T3, Human c-Met-Flis-Fc ECD. Description: ELISA, coated ECD-Fc, antibody 77.160 ng/mL. As for the experimental part:
as §3

Test [9] concerns the target T3, Human c-Met-Flis-Fc ECD. Description: ELISA, coated ECD-Fc, antibody 462.963 ng/mL. As for the experimental part:
as §3

Test [10] addresses T3, Human c-Met-Flis-Fc ECD. Nature of the test: ELISA, coated ECD-Fc, antibody 2777.778 ng/mL. As for the experimental part:
as §3

Test [11] concerns the target T3, Human c-Met-Flis-Fc ECD. Nature of the test: ELISA, coated ECD-Fc, antibody 16666.667 ng/mL. On the procedure: as §3
The target in test [12] is T3, Human c-Met-Flis-Fc ECD. Nature of the test: ELISA, coated ECD-Fc, antibody 100000.000 ng/mL. As for the experimental part:
as §3

In test [13] the target is T3, Human c-Met-Flis-Fc ECD. Nature of the test: SPR Biacore, antibody captured, ECD-Fc analyte, 1:1 model. As for the experimental part:
as §1, §2

In test [14] the target is T4, Cynomolgus Monkey c-Met-Flis-Fc ECD (cynomolgus monkey).
T4 construct: also called Cynomolgus Monkey cMet-ECD-Fc-Flis; cynomolgus monkey c-Met ECD
T4 sequence (chain, as listed by the source limits assumed): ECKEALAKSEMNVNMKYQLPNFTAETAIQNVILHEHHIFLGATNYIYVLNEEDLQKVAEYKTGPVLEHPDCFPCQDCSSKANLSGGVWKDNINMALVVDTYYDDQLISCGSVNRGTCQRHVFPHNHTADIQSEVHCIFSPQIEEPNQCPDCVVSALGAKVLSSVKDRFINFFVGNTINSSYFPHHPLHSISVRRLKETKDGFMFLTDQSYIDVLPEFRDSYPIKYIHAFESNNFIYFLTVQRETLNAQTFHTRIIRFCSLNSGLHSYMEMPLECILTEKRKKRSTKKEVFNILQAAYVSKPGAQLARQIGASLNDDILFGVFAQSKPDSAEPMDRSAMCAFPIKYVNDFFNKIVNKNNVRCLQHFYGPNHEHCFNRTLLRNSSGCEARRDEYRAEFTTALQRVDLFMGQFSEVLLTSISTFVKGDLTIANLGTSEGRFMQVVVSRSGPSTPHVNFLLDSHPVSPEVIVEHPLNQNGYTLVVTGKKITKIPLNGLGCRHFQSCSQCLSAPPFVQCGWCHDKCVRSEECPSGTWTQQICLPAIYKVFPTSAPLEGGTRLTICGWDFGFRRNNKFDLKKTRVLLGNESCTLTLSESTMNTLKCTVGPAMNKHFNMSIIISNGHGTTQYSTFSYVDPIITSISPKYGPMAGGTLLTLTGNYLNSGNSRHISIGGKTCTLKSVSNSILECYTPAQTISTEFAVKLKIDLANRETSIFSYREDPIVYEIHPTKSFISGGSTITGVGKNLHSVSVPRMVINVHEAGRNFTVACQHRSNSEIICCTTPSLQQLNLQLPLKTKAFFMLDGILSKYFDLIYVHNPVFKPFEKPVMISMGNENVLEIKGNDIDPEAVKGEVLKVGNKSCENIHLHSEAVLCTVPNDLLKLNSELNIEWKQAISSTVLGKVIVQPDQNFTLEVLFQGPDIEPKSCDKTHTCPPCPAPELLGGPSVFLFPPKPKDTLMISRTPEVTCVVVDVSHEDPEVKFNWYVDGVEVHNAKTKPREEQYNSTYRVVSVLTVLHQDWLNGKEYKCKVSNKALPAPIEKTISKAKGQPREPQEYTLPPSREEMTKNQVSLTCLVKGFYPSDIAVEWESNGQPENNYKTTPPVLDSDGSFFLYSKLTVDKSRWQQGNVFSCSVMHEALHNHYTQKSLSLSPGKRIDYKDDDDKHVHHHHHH
Described as above. On the procedure: as §1, §2

T3 sequence (chain, as listed by the source limits assumed): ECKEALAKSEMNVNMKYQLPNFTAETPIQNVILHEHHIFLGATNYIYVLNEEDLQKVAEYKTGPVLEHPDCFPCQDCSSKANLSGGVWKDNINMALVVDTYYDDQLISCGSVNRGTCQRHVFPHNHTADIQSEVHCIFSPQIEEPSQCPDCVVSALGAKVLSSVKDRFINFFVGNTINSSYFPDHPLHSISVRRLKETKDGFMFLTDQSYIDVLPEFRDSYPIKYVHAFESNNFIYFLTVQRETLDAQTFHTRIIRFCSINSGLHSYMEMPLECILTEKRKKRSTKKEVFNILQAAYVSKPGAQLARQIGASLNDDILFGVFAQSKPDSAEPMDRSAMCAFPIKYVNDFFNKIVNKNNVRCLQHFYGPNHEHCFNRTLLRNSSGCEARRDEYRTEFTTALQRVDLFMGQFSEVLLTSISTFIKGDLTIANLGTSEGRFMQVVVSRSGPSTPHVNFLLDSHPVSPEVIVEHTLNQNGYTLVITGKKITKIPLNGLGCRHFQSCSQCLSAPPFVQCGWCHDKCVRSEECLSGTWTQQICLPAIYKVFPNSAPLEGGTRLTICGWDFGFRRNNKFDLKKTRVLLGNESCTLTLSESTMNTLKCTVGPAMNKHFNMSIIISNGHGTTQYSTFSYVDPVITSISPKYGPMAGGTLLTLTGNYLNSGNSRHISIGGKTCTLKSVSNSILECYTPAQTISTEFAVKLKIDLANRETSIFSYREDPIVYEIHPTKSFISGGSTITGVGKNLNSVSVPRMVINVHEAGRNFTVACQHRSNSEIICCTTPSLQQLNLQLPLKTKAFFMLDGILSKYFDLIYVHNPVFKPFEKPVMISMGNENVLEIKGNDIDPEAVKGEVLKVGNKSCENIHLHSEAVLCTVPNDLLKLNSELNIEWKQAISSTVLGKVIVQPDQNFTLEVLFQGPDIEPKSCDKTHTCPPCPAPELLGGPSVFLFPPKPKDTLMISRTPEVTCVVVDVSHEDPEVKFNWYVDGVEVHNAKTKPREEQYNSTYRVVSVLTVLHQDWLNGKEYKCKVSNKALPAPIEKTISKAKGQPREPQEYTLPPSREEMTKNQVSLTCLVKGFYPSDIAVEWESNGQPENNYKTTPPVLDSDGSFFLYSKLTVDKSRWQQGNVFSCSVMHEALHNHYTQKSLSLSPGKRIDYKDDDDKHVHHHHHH
T2 sequence (P16056 25-931): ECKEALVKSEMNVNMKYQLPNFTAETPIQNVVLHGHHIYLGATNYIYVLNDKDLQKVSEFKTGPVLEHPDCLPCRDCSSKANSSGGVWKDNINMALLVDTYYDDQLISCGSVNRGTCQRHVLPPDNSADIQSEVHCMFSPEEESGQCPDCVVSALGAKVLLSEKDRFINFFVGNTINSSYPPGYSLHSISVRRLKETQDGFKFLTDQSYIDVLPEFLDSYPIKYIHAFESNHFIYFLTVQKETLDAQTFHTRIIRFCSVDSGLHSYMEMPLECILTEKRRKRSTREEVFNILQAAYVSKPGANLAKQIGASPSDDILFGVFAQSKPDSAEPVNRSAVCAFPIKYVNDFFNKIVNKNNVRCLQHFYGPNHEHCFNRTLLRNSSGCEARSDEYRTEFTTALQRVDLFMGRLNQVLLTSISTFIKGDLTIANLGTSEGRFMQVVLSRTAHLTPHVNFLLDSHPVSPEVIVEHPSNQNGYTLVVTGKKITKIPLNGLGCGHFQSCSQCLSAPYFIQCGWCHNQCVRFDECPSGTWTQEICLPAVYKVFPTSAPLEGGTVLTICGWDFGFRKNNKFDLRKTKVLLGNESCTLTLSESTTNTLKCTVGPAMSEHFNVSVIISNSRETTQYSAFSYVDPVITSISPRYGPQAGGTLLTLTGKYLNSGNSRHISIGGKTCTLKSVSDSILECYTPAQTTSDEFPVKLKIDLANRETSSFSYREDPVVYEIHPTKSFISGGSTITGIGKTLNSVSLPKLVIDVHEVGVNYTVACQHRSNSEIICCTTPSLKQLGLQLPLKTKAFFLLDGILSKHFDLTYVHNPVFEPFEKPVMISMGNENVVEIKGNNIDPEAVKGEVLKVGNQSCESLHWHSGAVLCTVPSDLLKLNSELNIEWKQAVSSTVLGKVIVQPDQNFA
T1 sequence (chain, as listed by the source limits assumed): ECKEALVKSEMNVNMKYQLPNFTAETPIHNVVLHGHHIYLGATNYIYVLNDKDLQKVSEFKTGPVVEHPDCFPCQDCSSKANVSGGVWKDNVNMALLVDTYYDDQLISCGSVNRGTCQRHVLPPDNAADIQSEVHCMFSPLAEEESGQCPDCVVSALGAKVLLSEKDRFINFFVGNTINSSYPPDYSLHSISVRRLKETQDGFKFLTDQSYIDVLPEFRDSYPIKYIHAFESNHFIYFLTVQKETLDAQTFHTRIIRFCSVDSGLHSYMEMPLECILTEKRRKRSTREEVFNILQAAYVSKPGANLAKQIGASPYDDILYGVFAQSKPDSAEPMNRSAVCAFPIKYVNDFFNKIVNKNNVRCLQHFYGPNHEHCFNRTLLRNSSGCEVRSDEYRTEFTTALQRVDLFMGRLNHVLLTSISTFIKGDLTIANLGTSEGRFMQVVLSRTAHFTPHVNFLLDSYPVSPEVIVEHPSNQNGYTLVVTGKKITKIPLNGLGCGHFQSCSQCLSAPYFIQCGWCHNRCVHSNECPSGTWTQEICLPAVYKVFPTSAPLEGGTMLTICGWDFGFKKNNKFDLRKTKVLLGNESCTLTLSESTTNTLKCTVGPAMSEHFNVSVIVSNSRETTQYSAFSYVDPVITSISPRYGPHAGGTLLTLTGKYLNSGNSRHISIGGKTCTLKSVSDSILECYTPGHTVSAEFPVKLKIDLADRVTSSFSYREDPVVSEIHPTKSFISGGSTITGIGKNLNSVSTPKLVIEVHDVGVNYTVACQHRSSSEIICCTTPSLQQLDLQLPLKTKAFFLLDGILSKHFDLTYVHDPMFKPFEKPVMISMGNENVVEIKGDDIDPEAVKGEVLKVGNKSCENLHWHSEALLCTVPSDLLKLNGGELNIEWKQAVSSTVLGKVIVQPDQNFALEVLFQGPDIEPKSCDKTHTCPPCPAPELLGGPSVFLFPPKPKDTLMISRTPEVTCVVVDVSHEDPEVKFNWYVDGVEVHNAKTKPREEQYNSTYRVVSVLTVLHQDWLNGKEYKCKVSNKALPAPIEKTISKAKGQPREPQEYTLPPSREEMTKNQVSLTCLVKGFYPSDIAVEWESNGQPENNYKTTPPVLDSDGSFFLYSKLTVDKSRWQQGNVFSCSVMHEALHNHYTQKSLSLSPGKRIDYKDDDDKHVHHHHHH

B1: C8-H241 (antibody, human IgG2, kappa, V domains shown)
VH: QVQLVQSGAEVKKPGASVKVSCKASGYTFTDYYMHWVRQAPGQGLEWMGRVNPNRRGTTYNQKFEGRVTMTTDTSTSTAYMELRSLRSDDTAVYYCARANWLDYWGQGTTVTVSS
VL: DIQMTQSPSSLSASVGDRVTITCSVSSSVSSIYLHWYQQKPGKAPKLLIYSTSNLASGVPSRFSGSGSGTDFTLTISSLQPEDFATYYCQVYSGYPLTFGGGTKVEIKR
notes: Called IgG4, kappa; also called Mab C8-H241
Regarding B1, the binding result with Rat c-Met-Flis-Fc ECD is given as “no binding”; with mouse c-Met ECD, “no binding (tested: 100 nM)”. Moreover, the “Average A450 nm” value is 0.3 A450 nm with Human c-Met-Flis-Fc ECD [1]; 0.317 A450 nm in the test with Human c-Met-Flis-Fc ECD [2]; 0.317 A450 nm with Human c-Met-Flis-Fc ECD [3]; 0.484 A450 nm in the test with Human c-Met-Flis-Fc ECD [4]; 0.902 A450 nm in the test with Human c-Met-Flis-Fc ECD [5]; 2.86 A450 nm in the test with Human c-Met-Flis-Fc ECD [6]. Moreover, the “Average A450 nm” value with Human c-Met-Flis-Fc ECD [7], in the test with Human c-Met-Flis-Fc ECD [8], in the test with Human c-Met-Flis-Fc ECD [9], with Human c-Met-Flis-Fc ECD [10], in the test with Human c-Met-Flis-Fc ECD [11] and with Human c-Met-Flis-Fc ECD [12] was 4 A450 nm throughout. The equilibrium dissociation constant (Kd) with Human c-Met-Flis-Fc ECD [13] was below 0.1 nM; in test [14], below 0.2 nM.

B2: C8-co-16 (antibody, human IgG2, kappa, V domains shown)
VH: QVQLVQSGAEVKKPGASVKVSCKASGYTFTDYYMHWVRQAPGQGLEWMGRVNPYRGSTTYNQKFEGRVTMTTDTSTSTAYMELRSLRSDDTAVYYCARANILDYWGQGTTVTVSS
VL: DIQMTQSPSSLSASVGDRVTITCSVSSSVRSIYLHWYQQKPGKAPKLLIYSTSNLASGVPSRFSGSGSGTDFTLTISSLQPEDFATYYCQVYRGYPLTFGGGTKVEIKR
notes: Called IgG4, kappa
In the case of B2, the values for the binding result with Rat c-Met-Flis-Fc ECD and with mouse c-Met ECD were “no binding” and “no binding (tested: 100 nM)”, respectively. Also, the “Average A450 nm” value with Human c-Met-Flis-Fc ECD [1] stood at 0.335 A450 nm; in the test with Human c-Met-Flis-Fc ECD [2] it was 0.369 A450 nm; in the test with Human c-Met-Flis-Fc ECD [3], 0.374 A450 nm; with Human c-Met-Flis-Fc ECD [4] it was 0.446 A450 nm; in the test with Human c-Met-Flis-Fc ECD [5], 0.907 A450 nm; with Human c-Met-Flis-Fc ECD [6], 2.89 A450 nm. Moreover, the “Average A450 nm” value in the test with Human c-Met-Flis-Fc ECD [7], with Human c-Met-Flis-Fc ECD [8], in the test with Human c-Met-Flis-Fc ECD [9], with Human c-Met-Flis-Fc ECD [10], in the test with Human c-Met-Flis-Fc ECD [11] and with Human c-Met-Flis-Fc ECD [12] was 4 A450 nm throughout. The Kd with Human c-Met-Flis-Fc ECD [13] was 0.3 nM; in [14] it was below 0.1 nM. Further, the koff in the test with Human c-Met-Flis-Fc ECD [13] is 3e-05 s⁻¹; in [14] it was below 1e-05 s⁻¹. The values for the kon (with Human c-Met-Flis-Fc ECD [13]; in test [14]) were 110000 M⁻¹ s⁻¹ and 103000 M⁻¹ s⁻¹, respectively.

Source of the values: US20100129369A1 (Eli Lilly, published 2010).
